# Results from the RNAGym collection of RNA variant scans (doi:10.7554/elife.80360).
# B1: CPEB3 Ribozyme (parent)
# chain: GGGGGCCACAGCAGAAGCGUUCACGUCGCGGCCCCUGUCAGAUUCUGGUGAAUCUGCGAAUUCUGCUGU
# Variants of: B1
# Test: self-cleavage, relative activity (ratio to wild type); higher = more cleavage; co-transcriptional
row,Variant,self-cleavage
1,C18U G47U,0.928
2,C18U G47A,0.975
3,C18U G47C,0.911
4,C18U G65C,0.363
5,C18U G65A,0.332
6,C18G G68C,0.21
7,C18G G68A,0.403
8,C18A C45A,0.0998
9,C18A C45U,0.21
10,C18A C45G,0.179
11,C18G A60U,0.154
12,C18G A60C,0.0758
13,C18G A60G,0.137
14,C18G C22G,0.236
15,C18G C22A,0.179
16,C18G U36C,0.122
17,C18G U36A,0.12
18,C18G U36G,0.145
19,C18G U26C,0.175
20,C18G U26G,0.267
21,C18G U26A,0.119
22,C18A G19C,0.0974
23,C18A G19U,0.12
24,G17U U53A,0.265

row,Variant,self-cleavage
1,G17U U53G,0.336
2,G17U U69C,0.874
3,C18A G48U,0.186
4,C18G C32U,0.195
5,C18G C32G,0.195
6,C18G C32A,0.105
7,C18G A42G,0.229
8,C18G A42U,0.137
9,C18U G25C,0.153
10,C18U G25U,0.17
11,C18U G25A,0.157
12,C18U G48U,0.934
13,C18U G48C,0.903
14,G17U G41C,0.14
15,G17U G41U,0.194
16,G17U G41A,0.152
17,C18G U55A,0.126
18,C18G U55C,0.198
19,C18G C35U,0.203
20,C18G C35G,0.151
21,G17U U26C,0.286
22,G17U U26G,0.297
23,G17U U26A,0.312
24,C18G U69G,0.252

row,Variant,self-cleavage
1,C18G U69C,0.352
2,C18G U69A,0.26
3,C18A C22U,0.0813
4,C18A C22A,0.144
5,C18A C22G,0.159
6,C18U G68C,0.924
7,C18U G68U,0.943
8,C18U G68A,0.948
9,C18G U62C,0.122
10,C18G U62A,0.142
11,C18A U20C,0.158
12,C18U U26C,0.732
13,C18U U26G,0.697
14,C18A G68A,0.357
15,C18A G68C,0.28
16,C18A C34A,0.145
17,C18A U55G,0.113
18,C18A U55A,0.142
19,C18G U21G,0.174
20,C18G U21C,0.219
21,C18A U64G,0.178
22,C18U G37C,0.13
23,C18U G37A,0.193
24,C18A U26A,0.128

row,Variant,self-cleavage
1,C18A G47U,0.203
2,C18A G47C,0.181
3,C18A G47A,0.232
4,C18A C27A,0.163
5,C18U G56A,0.706
6,C18G A23C,0.187
7,C18A U36C,0.142
8,C18A U36A,0.182
9,C18U A52U,0.87
10,C18U A52G,0.923
11,C18U A52C,0.759
12,C18A C39A,0.156
13,C18A C39G,0.142
14,C18A C39U,0.136
15,C18U A60G,0.809
16,C18G G65A,0.131
17,C18G G65C,0.141
18,C18G C45U,0.183
19,C18G C45G,0.113
20,C18G C45A,0.0664
21,G17U U20A,0.151
22,G17U U20C,0.107
23,G17U U20G,0.192
24,C18A G30C,0.133

row,Variant,self-cleavage
1,C18A G30A,0.117
2,C18A G30U,0.132
3,C18G U43A,0.114
4,C18G U43C,0.188
5,C18G U43G,0.0435
6,G17U G65A,0.254
7,G17U G65U,0.292
8,C18U G30C,0.222
9,C18U G30U,0.192
10,G17U U61A,0.333
11,C18U C27U,0.121
12,C18U C27A,0.198
13,C18U C27G,0.194
14,G17U U36G,0.191
15,G17U U36A,0.0699
16,C18G G37C,0.111
17,C18G G37U,0.0757
18,C18A A60U,0.131
19,C18U U21C,0.389
20,C18U U21A,0.807
21,C18U U21G,0.276
22,C18U C66U,0.704
23,C18U C66A,0.297
24,G17U U49G,0.455

row,Variant,self-cleavage
1,G17U U49A,0.662
2,G17U U49C,0.554
3,C18U C35A,0.24
4,C18U C35G,0.281
5,C18A C24A,0.142
6,C18A C24U,0.0604
7,G17U G50C,0.386
8,G17U G50A,0.571
9,G17U G50U,0.552
10,C18A G65U,0.102
11,C18A G65A,0.148
12,C18G U61C,0.209
13,C18G U61G,0.144
14,C18U G50A,0.906
15,C18U C32A,0.381
16,C18U C32U,0.87
17,C18G C29A,0.16
18,C18G C29U,0.156
19,G17U U46C,0.537
20,C18A G31C,0.124
21,C18A G31U,0.129
22,C18A G31A,0.187
23,C18G U46A,0.227
24,C18G U46C,0.15

row,Variant,self-cleavage
1,C18U G58A,0.801
2,C18U G58U,0.942
3,G17U G47A,0.683
4,G17U G47C,0.69
5,C18U C33U,0.821
6,C18G G56U,0.128
7,C18G G31C,0.142
8,C18G G31A,0.0986
9,C18G G31U,0.181
10,C18U C29A,0.161
11,C18U C29U,0.0827
12,C18G A59U,0.17
13,C18G A59G,0.22
14,C18U A59G,0.793
15,C18G U20G,0.218
16,C18G U20C,0.0509
17,G17U G31C,0.129
18,G17U G31U,0.169
19,G17U U38A,0.255
20,G17U U38G,0.149
21,C18U U36A,0.109
22,C18U U36C,0.562
23,G17U G56C,0.219
24,G17U G56A,0.32

row,Variant,self-cleavage
1,G17U G56U,0.2
2,G17U U44A,0.395
3,G17U U44C,0.368
4,C18A G58U,0.184
5,C18A G58A,0.155
6,C18U C24G,0.164
7,C18U C24A,0.416
8,C18A C32A,0.192
9,C18A C32U,0.22
10,C18A C32G,0.181
11,C18A G28C,0.426
12,C18A G28U,0.889
13,C18A G28A,0.12
14,C18U C22U,0.108
15,C18U C22G,0.197
16,C18A A52G,0.201
17,C18A A52U,0.258
18,C18G G58U,0.176
19,C18G G58C,0.154
20,C18A U44G,0.123
21,C18A U44A,0.185
22,C18A G41C,0.119
23,C18A G41U,0.211
24,C18G U67A,0.205

row,Variant,self-cleavage
1,C18G U67C,0.186
2,C18A U69G,0.307
3,C18A U69A,0.302
4,C18G G30C,0.167
5,C18G G30A,0.236
6,C18G G30U,0.183
7,C18G C27A,0.16
8,C18G C27G,0.224
9,C18G C57U,0.145
10,C18G C57A,0.0895
11,C18G G47A,0.21
12,C18U C34A,0.352
13,C18G G19A,0.114
14,C18G G19U,0.153
15,C18G C33A,0.193
16,C18G C33U,0.226
17,C18G C33G,0.147
18,G17U G48U,0.694
19,G17U G48C,0.635
20,C18G U64A,0.228
21,C18G U64C,0.1
22,C18G U64G,0.159
23,G17U U55G,0.238
24,G17U U55A,0.177

row,Variant,self-cleavage
1,C18U A51G,0.853
2,C18U A51U,0.851
3,C18U G31A,0.313
4,C18U G31U,0.295
5,C18U G31C,0.178
6,C18G A40U,0.167
7,C18G A40C,0.152
8,C18A C54G,0.179
9,C18A C54U,0.173
10,C18G C66A,0.11
11,C18G C24A,0.105
12,C18G G25U,0.151
13,C18G G25C,0.092
14,C18A C29G,0.15
15,C18A C33G,0.123
16,C18A C33U,0.251
17,G17U G68A,0.875
18,C18U C54A,0.305
19,C18U C54G,0.456
20,C18U C54U,0.852
21,C18A A51G,0.233
22,C18A A51U,0.181
23,C18A G25C,0.178
24,C18A G25U,0.0886

row,Variant,self-cleavage
1,C18A A23G,0.171
2,C18A G56C,0.186
3,C18G G41U,0.134
4,C18G G41A,0.113
5,C18G G41C,0.0964
6,C18G G50U,0.143
7,C18G G50A,0.266
8,C18G U44A,0.116
9,C18U U20A,0.108
10,C18U U20C,0.135
11,C18G G28U,0.129
12,C18G G28C,0.911
13,C18G G48A,0.145
14,C18G G48C,0.17
15,C18G G48U,0.208
16,C18A G37U,0.121
17,C18A G37A,0.14
18,G17U U43C,0.446
19,C18A A59C,0.0942
20,C18A C63U,0.151
21,C18A C63G,0.147
22,C18G U53C,0.0868
23,C18G U53G,0.199
24,C18G U53A,0.177

row,Variant,self-cleavage
1,C18A G50A,0.191
2,C18A G50U,0.284
3,C18A G50C,0.208
4,C18A U46G,0.219
5,C18A U46A,0.217
6,G17U U64C,0.251
7,C18U A42G,0.579
8,C18U A42C,0.556
9,G17U U21G,0.0999
10,G17U U21A,0.367
11,C18A U43G,0.117
12,C18A U43A,0.117
13,C18G U38C,0.234
14,C18G U38G,0.155
15,C18U G19U,0.142
16,C18U G19C,0.168
17,C18G A51C,0.159
18,C18A,0.2
19,C18U,0.926
20,C18G,0.188
21,C18G C34G,0.153
22,C18G C34U,0.133
23,C18G C34A,0.131
24,C18A C57A,0.117

row,Variant,self-cleavage
1,C18A C35U,0.222
2,C18A C35G,0.104
3,C18A U21G,0.109
4,C18A U21A,0.107
5,C18A U21C,0.181
6,C18A U38C,0.0484
7,C18A U38A,0.0704
8,C18U C57G,0.271
9,C18U C57A,0.24
10,C18A A42U,0.0858
11,C18A A42C,0.166
12,C18G C54A,0.186
13,C18U G28A,0.909
14,C18U C39U,0.551
15,C18U C39A,0.387
16,G17U U67C,0.537
17,C18U A40C,0.197
18,C18G U49C,0.147
19,C18G U49G,0.217
20,C18U A23U,0.877
21,C18U A23G,0.715
22,C18U A23C,0.746
23,G17U U62A,0.281
24,G17U U62G,0.316

row,Variant,self-cleavage
1,G17U U62C,0.23
2,C18G C63U,0.136
3,C18G C63A,0.179
4,C18A U53C,0.169
5,C18A A40U,0.0764
6,C18A A40G,0.176
7,C18U C63G,0.306
8,C18U C63A,0.284
9,C18U C63U,0.678
10,G17U G37C,0.159
11,G17U G37A,0.175
12,G17U G37U,0.169
13,C18U C45A,0.792
14,C18A U67C,0.23
15,C18A U67A,0.268
16,C18A U67G,0.348
17,C18G A52U,0.0952
18,G17U G58U,0.65
19,G17U G58C,0.527
20,C18A U61A,0.138
21,C18A U61G,0.166
22,C18A U49G,0.259
